Test results taken from article PMC8882007, “Syndapin-2 mediated transcytosis of amyloid-β across the blood–brain barrier” (Brain Communications, 2022).

How the values were obtained:
Assay in all cases: proximity ligation; Duolink PLA between two endogenous proteins in polarized bEnd3 monolayers, fixed in 4% PFA and permeabilized with 0.1% Triton X-100; two primary antibodies overnight at 4°C; PLA signal normalized by the number of nuclei; also in shRNA control (scramble) and syndapin-2 knockdown cells, and after FAM-Aβ (1–40) or Aβ monomers, oligomers or fibrils for 15 min
[1] = molecular target: Rab7 (mouse (endogenous in bEnd3)) (UniProt P51150)
[2] = molecular target: Rab5 (mouse (endogenous in bEnd3)) (UniProt Q9CQD1)
[3] = molecular target: Rab11 (mouse (endogenous in bEnd3)) (UniProt P62492)

Measured: PLA dots per cell (dots per cell)

Chain of syndapin-2 (Q9WVE8 whole entry): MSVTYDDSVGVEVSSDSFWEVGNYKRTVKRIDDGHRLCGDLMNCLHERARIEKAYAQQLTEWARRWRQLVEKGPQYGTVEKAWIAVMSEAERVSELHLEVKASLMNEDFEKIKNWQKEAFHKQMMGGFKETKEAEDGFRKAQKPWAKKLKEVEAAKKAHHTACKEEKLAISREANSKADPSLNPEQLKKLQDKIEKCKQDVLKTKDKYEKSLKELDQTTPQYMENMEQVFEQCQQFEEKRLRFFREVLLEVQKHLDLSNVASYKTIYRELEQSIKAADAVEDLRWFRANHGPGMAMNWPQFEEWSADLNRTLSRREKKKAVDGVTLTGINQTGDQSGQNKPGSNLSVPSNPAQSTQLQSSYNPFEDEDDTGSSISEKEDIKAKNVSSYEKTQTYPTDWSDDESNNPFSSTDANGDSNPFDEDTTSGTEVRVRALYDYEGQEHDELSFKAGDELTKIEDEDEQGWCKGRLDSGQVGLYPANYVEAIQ
Chain of Rab11 (mouse (endogenous in bEnd3)) (P62492 whole entry): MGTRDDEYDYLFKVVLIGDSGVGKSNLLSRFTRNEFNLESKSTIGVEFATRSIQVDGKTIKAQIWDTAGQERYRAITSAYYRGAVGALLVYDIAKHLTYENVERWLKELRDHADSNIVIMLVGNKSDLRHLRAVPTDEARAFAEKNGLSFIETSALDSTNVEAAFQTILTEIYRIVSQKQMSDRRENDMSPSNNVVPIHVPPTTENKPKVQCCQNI
Chain of Rab5 (mouse (endogenous in bEnd3)) (Q9CQD1 whole entry): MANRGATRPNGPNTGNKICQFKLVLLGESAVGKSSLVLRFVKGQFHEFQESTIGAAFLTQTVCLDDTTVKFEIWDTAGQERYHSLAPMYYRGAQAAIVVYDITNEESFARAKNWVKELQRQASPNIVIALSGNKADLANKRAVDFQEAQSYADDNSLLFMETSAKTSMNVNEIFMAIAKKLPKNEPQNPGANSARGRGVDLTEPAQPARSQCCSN
Chain of Rab7 (mouse (endogenous in bEnd3)) (P51150 whole entry): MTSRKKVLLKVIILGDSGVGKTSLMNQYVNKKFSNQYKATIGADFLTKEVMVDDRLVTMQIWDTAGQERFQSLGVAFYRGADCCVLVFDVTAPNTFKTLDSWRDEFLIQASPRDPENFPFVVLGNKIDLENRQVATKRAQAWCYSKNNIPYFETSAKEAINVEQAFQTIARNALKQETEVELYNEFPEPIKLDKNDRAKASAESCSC

syndapin-2 (from UniProt Q9WVE8 1-486) (natural protein)
< 20: [1] | [2] | [3]
